Test results as given in patent publication US20200264182A1, “METHOD FOR DETECTING PROSTATE CANCER” (J-OIL MILLS, INC., priority 2017, published 2020).

Tests used:
FAC binding constant = conditions: at 25° C.
Experimental: (§1) Details of the FAC method are described in Patent Document 2 filed by some of the present applicants, for example.
(§2) Binding constants (at 25° C.) of PhoSL, SRL, NSL and LSL belonging to the fucose α1→6 specific lectin for various sugar chains are shown in Tables 2 to 5.

[1] = Binding to sugar chains, summary of Tables 2 to 5
Experimental: as §1, §2
The AAL and AOL bind to the fucose α1→6 sugar chains (sugar chains No. 015, 201 to 203, and 401 to 418), as well as to the glycolipid-type sugar chain excluding the fucose α1→6 (sugar chains No. 718, 722, 723, 727, 909, 910 and 933). The LCL and PSL bind to the fucose α1→6 sugar chain, as well as to sugar chain excluding the α1→6 fucose (sugar chains No. 003, and 005 to 014).
Furthermore, the binding constant of the fucose α1→6 specific lectin is not decreased even if a sialic acid is added to the fucose α1→6 sugar chain (sugar chains No. 601 and 602). In addition, the fucose α1→6 specific lectin also strongly binds to the triple-strand (sugar chains No. 407 to 413) and the four-strand (sugar chains No. 418) of the fucose uα1→6 sugar chain.

[2] = FAC binding constant (Table 5 entry); conditions: Table 5: sugar chain having no fucose; at 25° C.
Experimental: as §1, §2

[3] = sugar chain having fucose other than α1→6 fucose

- Binding constant for sugar chain No. 728 (FAC binding constant; Table 3: sugar chain having fucose other than α1→6 fucose): <1000 M⁻¹
- Binding constant for sugar chain No. 419 (FAC binding constant; [3]): <1000 M⁻¹
- Binding constant for sugar chain No. 420 (FAC binding constant; [3]): <1000 M⁻¹
- Binding constant for sugar chain No. 718 (FAC binding constant; [3]): <1000 M⁻¹
- Binding constant for sugar chain No. 719 (FAC binding constant; [3]): <1000 M⁻¹
- Binding constant for sugar chain No. 720 (FAC binding constant; [3]): <1000 M⁻¹
- Binding constant for sugar chain No. 721 (FAC binding constant; [3]): <1000 M⁻¹
- Binding constant for sugar chain No. 722 (FAC binding constant; [3]): <1000 M⁻¹
- Binding constant for sugar chain No. 723 (FAC binding constant; [3]): <1000 M⁻¹
- Binding constant for sugar chain No. 726 (FAC binding constant; [3]): <1000 M⁻¹
- Binding constant for sugar chain No. 727 (FAC binding constant; [3]): <1000 M⁻¹
- Binding constant for sugar chain No. 729 (FAC binding constant; [3]): <1000 M⁻¹
- Binding constant for sugar chain No. 730 (FAC binding constant; [3]): <1000 M⁻¹
- Binding constant for sugar chain No. 731 (FAC binding constant; [3]): <1000 M⁻¹
- Binding constant for sugar chain No. 739 (FAC binding constant; [3]): <1000 M⁻¹
- Binding constant for sugar chain No. 909 (FAC binding constant; [3]): <1000 M⁻¹
- Binding constant for sugar chain No. 910 (FAC binding constant; [3]): <1000 M⁻¹
- Binding constant for sugar chain No. 931 (FAC binding constant; [3]): <1000 M⁻¹
- Binding constant for sugar chain No. 932 (FAC binding constant; [3]): <1000 M⁻¹
- Binding constant for sugar chain No. 933 (FAC binding constant; [3]): <1000 M⁻¹
- Binding constant for sugar chain No. 001 (FAC binding constant; sugar chain having no fucose): <1000 M⁻¹
- Binding constant for sugar chain No. 002 (FAC binding constant; sugar chain having no fucose): <1000 M⁻¹
- Binding constant for sugar chain No. 003 (FAC binding constant; sugar chain having no fucose): 7200 M⁻¹
- Binding constant for sugar chain No. 004 (FAC binding constant; sugar chain having no fucose): <1000 M⁻¹
- Binding constant for sugar chain No. 005 (FAC binding constant; sugar chain having no fucose): <1000 M⁻¹
- Binding constant for sugar chain No. 006 (FAC binding constant; sugar chain having no fucose): 14000 M⁻¹
- Binding constant for sugar chain No. 007 (FAC binding constant; sugar chain having no fucose): <1000 M⁻¹
- Binding constant for sugar chain No. 008 (FAC binding constant; sugar chain having no fucose): 18000 M⁻¹
- Binding constant for sugar chain No. 009 (FAC binding constant; sugar chain having no fucose): 18000 M⁻¹
- Binding constant for sugar chain No. 010 (FAC binding constant; sugar chain having no fucose): 13000 M⁻¹
- Binding constant for sugar chain No. 011 (FAC binding constant; sugar chain having no fucose): 14000 M⁻¹
- Binding constant for sugar chain No. 012 (FAC binding constant; sugar chain having no fucose): 25000 M⁻¹
- Binding constant for sugar chain No. 013 (FAC binding constant; sugar chain having no fucose): 17000 M⁻¹
- Binding constant for sugar chain No. 014 (FAC binding constant; sugar chain having no fucose): 17000 M⁻¹
- Binding constant for sugar chain No. 101 (FAC binding constant; sugar chain having no fucose): <1000 M⁻¹
- Binding constant for sugar chain No. 103 (FAC binding constant; sugar chain having no fucose): <1000 M⁻¹
- Binding constant for sugar chain No. 104 (FAC binding constant; sugar chain having no fucose): <1000 M⁻¹
- Binding constant for sugar chain No. 105 (FAC binding constant; sugar chain having no fucose): <1000 M⁻¹
- Binding constant for sugar chain No. 107 (FAC binding constant; sugar chain having no fucose): <1000 M⁻¹
- Binding constant for sugar chain No. 108 (FAC binding constant; sugar chain having no fucose): <1000 M⁻¹
- Binding constant for sugar chain No. 301 (FAC binding constant; sugar chain having no fucose): <1000 M⁻¹
- Binding constant for sugar chain No. 304 (FAC binding constant; sugar chain having no fucose): <1000 M⁻¹
- Binding constant for sugar chain No. 305 (FAC binding constant; sugar chain having no fucose): <1000 M⁻¹
- Binding constant for sugar chain No. 307 (FAC binding constant; sugar chain having no fucose): <1000 M⁻¹
- Binding constant for sugar chain No. 308 (FAC binding constant; sugar chain having no fucose): <1000 M⁻¹
- Binding constant for sugar chain No. 313 (FAC binding constant; sugar chain having no fucose): <1000 M⁻¹
- Binding constant for sugar chain No. 314 (FAC binding constant; sugar chain having no fucose): <1000 M⁻¹
- Binding constant for sugar chain No. 323 (FAC binding constant; sugar chain having no fucose): <1000 M⁻¹
- Binding constant for sugar chain No. 501 (FAC binding constant; sugar chain having no fucose): <1000 M⁻¹
- Binding constant for sugar chain No. 502 (FAC binding constant; sugar chain having no fucose): <1000 M⁻¹
- Binding constant for sugar chain No. 503 (FAC binding constant; sugar chain having no fucose): <1000 M⁻¹
- Binding constant for sugar chain No. 504 (FAC binding constant; sugar chain having no fucose): <1000 M⁻¹
- Binding constant for sugar chain No. 701 (FAC binding constant; sugar chain having no fucose): <1000 M⁻¹
- Binding constant for sugar chain No. 702 (FAC binding constant; sugar chain having no fucose): <1000 M⁻¹
- Binding constant for sugar chain No. 703 (FAC binding constant; sugar chain having no fucose): <1000 M⁻¹
- Binding constant for sugar chain No. 704 (FAC binding constant; sugar chain having no fucose): <1000 M⁻¹
- Binding constant for sugar chain No. 705 (FAC binding constant; sugar chain having no fucose): <1000 M⁻¹
- Binding constant for sugar chain No. 706 (FAC binding constant; sugar chain having no fucose): <1000 M⁻¹
- Binding constant for sugar chain No. 707 (FAC binding constant; sugar chain having no fucose): <1000 M⁻¹
- Binding constant for sugar chain No. 708 (FAC binding constant; sugar chain having no fucose): <1000 M⁻¹
- Binding constant for sugar chain No. 709 (FAC binding constant; sugar chain having no fucose): <1000 M⁻¹
- Binding constant for sugar chain No. 710 (FAC binding constant; sugar chain having no fucose): <1000 M⁻¹
- Binding constant for sugar chain No. 711 (FAC binding constant; sugar chain having no fucose): <1000 M⁻¹
- Binding constant for sugar chain No. 712 (FAC binding constant; sugar chain having no fucose): <1000 M⁻¹
- Binding constant for sugar chain No. 713 (FAC binding constant; sugar chain having no fucose): <1000 M⁻¹
- Binding constant for sugar chain No. 715 (FAC binding constant; sugar chain having no fucose): <1000 M⁻¹
- Binding constant for sugar chain No. 716 (FAC binding constant; sugar chain having no fucose): <1000 M⁻¹
- Binding constant for sugar chain No. 717 (FAC binding constant; sugar chain having no fucose): <1000 M⁻¹
- Binding constant for sugar chain No. 724 (FAC binding constant; sugar chain having no fucose): <1000 M⁻¹
- Binding constant for sugar chain No. 725 (FAC binding constant; sugar chain having no fucose): <1000 M⁻¹
- Binding constant for sugar chain No. 732 (FAC binding constant; sugar chain having no fucose): <1000 M⁻¹
- Binding constant for sugar chain No. 733 (FAC binding constant; sugar chain having no fucose): <1000 M⁻¹
- Binding constant for sugar chain No. 734 (FAC binding constant; sugar chain having no fucose): <1000 M⁻¹
- Binding constant for sugar chain No. 735 (FAC binding constant; sugar chain having no fucose): <1000 M⁻¹
- Binding constant for sugar chain No. 736 (FAC binding constant; sugar chain having no fucose): <1000 M⁻¹
- Binding constant for sugar chain No. 737 (FAC binding constant; sugar chain having no fucose): <1000 M⁻¹
- Binding constant for sugar chain No. 738 (FAC binding constant; sugar chain having no fucose): <1000 M⁻¹
- Binding constant for sugar chain No. 901 (FAC binding constant; sugar chain having no fucose): <1000 M⁻¹
- Binding constant for sugar chain No. 902 (FAC binding constant; sugar chain having no fucose): <1000 M⁻¹
- Binding constant for sugar chain No. 903 (FAC binding constant; sugar chain having no fucose): <1000 M⁻¹
- Binding constant for sugar chain No. 905 (FAC binding constant; sugar chain having no fucose): <1000 M⁻¹
- Binding constant for sugar chain No. 906 (FAC binding constant; sugar chain having no fucose): <1000 M⁻¹
- Binding constant for sugar chain No. 907 (FAC binding constant; sugar chain having no fucose): <1000 M⁻¹
- Binding constant for sugar chain No. 015 (FAC binding constant; sugar chain having α1→6 fucose): 56000 M⁻¹
- Binding constant for sugar chain No. 201 (FAC binding constant; sugar chain having α1→6 fucose): 500000 M⁻¹
- Binding constant for sugar chain No. 202 (FAC binding constant; sugar chain having α1→6 fucose): 110000 M⁻¹
- Binding constant for sugar chain No. 203 (FAC binding constant; sugar chain having α1→6 fucose): 730000 M⁻¹
- Binding constant for sugar chain No. 401 (FAC binding constant; sugar chain having α1→6 fucose): 42000 M⁻¹
- Binding constant for sugar chain No. 402 (FAC binding constant; sugar chain having α1→6 fucose): 59000 M⁻¹
- Binding constant for sugar chain No. 403 (FAC binding constant; sugar chain having α1→6 fucose): 99000 M⁻¹
- Binding constant for sugar chain No. 404 (FAC binding constant; sugar chain having α1→6 fucose): 58000 M⁻¹
- Binding constant for sugar chain No. 405 (FAC binding constant; sugar chain having α1→6 fucose): 47000 M⁻¹
- Binding constant for sugar chain No. 406 (FAC binding constant; sugar chain having α1→6 fucose): 18000 M⁻¹
- Binding constant for sugar chain No. 407 (FAC binding constant; sugar chain having α1→6 fucose): 1000 M⁻¹
- Binding constant for sugar chain No. 410 (FAC binding constant; sugar chain having α1→6 fucose): <1000 M⁻¹
- Binding constant for sugar chain No. 413 (FAC binding constant; sugar chain having α1→6 fucose): <1000 M⁻¹
- Binding constant for sugar chain No. 418 (FAC binding constant; sugar chain having α1→6 fucose): <1000 M⁻¹
- Binding constant for sugar chain No. 601 (FAC binding constant; sugar chain having α1→6 fucose): 30000 M⁻¹
- Binding constant for sugar chain No. 602 (FAC binding constant; sugar chain having α1→6 fucose): 24000 M⁻¹
- binding to sugar chain excluding the α1→6 fucose (in words) ([1]; sugar chains No. 003, and 005 to 014 for LCL and PSL): bind
- binding to the fucose α1→6 sugar chains (in words) ([1]; sugar chains No. 015, 201 to 203, and 401 to 418): bind
- Binding constant for sugar chain No. 728 [2]: <1000 M⁻¹
B1: LCL: Lens culinaris lectin, affinity for fucose α1→6 but not specific (protein)
chain 1: TETTSFSITKFSPDQKNLIFQGDGYTTKGKLTLTKAVKSTVGRALYSTPIHIWDRDTGNVANFVTSFTFVIDAPSSYNVADEFTFFIAPVDTKPQTGGGYLGVFNSKEYDKTSQTVAVEFDTFYNAAWDPSNKERHIGIDVNSIKSVNTKSWNLQNGERANVVIAFNAATNVLTVTLTYP
chain 2: VTSYTLNEVVPLKDVVPEWVRIGFSATTGAEFAAHEVHSWSFHSELGGTSSS
